Changes are numbered by the printed parent chain.
B1: AF4379 (other)
heavy: APTSSSTKKTQLQLEHLLLDLQMILNGINNYKNPKLTDMLTFEFYMPKKATELKHLQCLERELKPLEEVLNLAQSKNFHLRPRDLISNINVIVLELKGSETTFMCEYADETATIVEFLNRWITFCQSIISTLTGGGGSGGGGSGGGGSGGGGSQVQLVQSGAEVKKPGASVKVSCKASGDTFTRYYVHWVRQAPGQGLEWMGIINPSGGYASYAQKFQGRVTMTRDTSTSTVYMELSSLRSEDTAVYYCAAGLFIWGQGTLVTVSSAKTTAPSVYPLAPVCGDTTGSSVTLGCLVKGYFPEPVTLTWNSGSLSSGVHTFPAVLQSDLYTLSSSVTVTSSTWPSQSITCNVAHPASSTKVDKKIEPRGPTIKPCPPCKCPAPNAAGGPSVFIFPPKIKDVLMISLSPIVTCVVVDVSEDDPDVQISWFVNNVEVHTAQTQTHREDYNSTLRVVSALPIQHQDWMSGKEFKCKVNNKDLGAPIERTISKPKGSVRAPQVYVLPPPEEEMTKKQVTLTCMVTDFMPEDIYVEWTNNGKTELNYKNTEPVLDSDGSYFMYSKLRVEKKNWVERNSYSCSVVHEGLHNHHTTKSFSRTPGK
light: DIQMTQSPSSLSASVGDRVTITCRASQSIGRYLAWYQQKPGKAPKLLIYSASNLETGVPSRFSGSGSGTDFTLTISSLQPEDFATYYCQQYNSFPVTFGPGTKVDIKRADAAPTVSIFPPSSEQLTSGGASVVCFLNNFYPKDINVKWKIDGSERQNGVLNSWTDQDSKDSTYSMSSTLTLTKDEYERHNSYTCEATHKTSTSPIVKSFNRNEC
B2: AF4386 (other)
heavy 1: B1 heavy with K558D, K588E
heavy 2: QVQLVQSGAEVKKPGASVKVSCKASGDTFTRYYVHWVRQAPGQGLEWMGIINPSGGYASYAQKFQGRVTMTRDTSTSTVYMELSSLRSEDTAVYYCAAGLFIWGQGTLVTVSSAKTTAPSVYPLAPVCGDTTGSSVTLGCLVKGYFPEPVTLTWNSGSLSSGVHTFPAVLQSDLYTLSSSVTVTSSTWPSQSITCNVAHPASSTKVDKKIEPRGPTIKPCPPCKCPAPNAAGGPSVFIFPPKIKDVLMISLSPIVTCVVVDVSEDDPDVQISWFVNNVEVHTAQTQTHREDYNSTLRVVSALPIQHQDWMSGKEFKCKVNNKDLGAPIERTISKPKGSVRAPQVYVLPPPEKEMTKKQVSLTCLVKDFMPEDIYVEWTNNGKTELNYKNTEPVLKSDGSYFMYSKLTVEKKNWVERNSYSCSVVHEGLHNHHTTKSFSRTPGGGGSGGGSHHHHHH
light: B1 light
B3: AF4403 (other)
heavy 1: QVQLVESGGGVVQPGRSLRLDCKASGITFSNSGMHWVRQAPGKGLEWVAVIWYDGSKRYYADSVKGRFTISRDNSKNTLFLQMNSLRAEDTAVYYCATNDDYWGQGTLVTVSSAKTTAPSVYPLAPVCGDTTGSSVTLGCLVKGYFPEPVTLTWNSGSLSSGVHTFPAVLQSDLYTLSSSVTVTSSTWPSQSITCNVAHPASSTKVDKKIEPRGPTIKPCPPCKCPAPNAAGGPSVFIFPPKIKDVLMISLSPIVTCVVVDVSEDDPDVQISWFVNNVEVHTAQTQTHREDYNSTLRVVSALPIQHQDWMSGKEFKCKVNNKDLGAPIERTISKPKGSVRAPQVYVLPPPEEEMTKKQVTLTCMVTDFMPEDIYVEWTNNGKTELNYKNTEPVLDSDGSYFMYSDLRVEKKNWVERNSYSCSVVHEGLHNHHTTESFSRTPGGGGGSGGGGSGGGGSAPTSSSTKKTQLQLEHLLLDLQMILNGINNYKNPKLTDMLTFEFYMPKKATELKHLQCLERELKPLEEVLNLAQSKNFHLRPRDLISNINVIVLELKGSETTFMCEYADETATIVEFLNRWITFCQSIISTLT
heavy 2: QVQLVESGGGVVQPGRSLRLDCKASGITFSNSGMHWVRQAPGKGLEWVAVIWYDGSKRYYADSVKGRFTISRDNSKNTLFLQMNSLRAEDTAVYYCATNDDYWGQGTLVTVSSAKTTAPSVYPLAPVCGDTTGSSVTLGCLVKGYFPEPVTLTWNSGSLSSGVHTFPAVLQSDLYTLSSSVTVTSSTWPSQSITCNVAHPASSTKVDKKIEPRGPTIKPCPPCKCPAPNAAGGPSVFIFPPKIKDVLMISLSPIVTCVVVDVSEDDPDVQISWFVNNVEVHTAQTQTHREDYNSTLRVVSALPIQHQDWMSGKEFKCKVNNKDLGAPIERTISKPKGSVRAPQVYVLPPPEKEMTKKQVSLTCLVKDFMPEDIYVEWTNNGKTELNYKNTEPVLKSDGSYFMYSKLTVEKKNWVERNSYSCSVVHEGLHNHHTTKSFSRTPGGGGGSGGGGSGGGGSGGGGSQVQLVQSGAEVKKPGASVKVSCKASGDTFTRYYVHWVRQAPGQGLEWMGIINPSGGYASYAQKFQGRVTMTRDTSTSTVYMELSSLRSEDTAVYYCAAGLFIWGQGTLVTVSSASGGGGSGGGGSGGGGSHASDIQMTQSPSSLSASVGDRVTITCRASQSIGRYLAWYQQKPGKAPKLLIYSASNLETGVPSRFSGSGSGTDFTLTISSLQPEDFATYYCQQYNSFPVTFGPGTKVDIKGGGSGGGSHHHHHH
light: EIVLTQSPATLSLSPGERATLSCRASQSVSSYLAWYQQKPGQAPRLLIYDASNRATGIPARFSGSGSGTDFTLTISSLEPEDFAVYYCQQSSNWPRTFGQGTKVEIKRADAAPTVSIFPPSSEQLTSGGASVVCFLNNFYPKDINVKWKIDGSERQNGVLNSWTDQDSKDSTYSMSSTLTLTKDEYERHNSYTCEATHKTSTSPIVKSFNRNEC
B4: AF4404 (other)
heavy 1: B3 heavy 1
heavy 2: QVQLVESGGGVVQPGRSLRLDCKASGITFSNSGMHWVRQAPGKGLEWVAVIWYDGSKRYYADSVKGRFTISRDNSKNTLFLQMNSLRAEDTAVYYCATNDDYWGQGTLVTVSSAKTTAPSVYPLAPVCGDTTGSSVTLGCLVKGYFPEPVTLTWNSGSLSSGVHTFPAVLQSDLYTLSSSVTVTSSTWPSQSITCNVAHPASSTKVDKKIEPRGPTIKPCPPCKCPAPNAAGGPSVFIFPPKIKDVLMISLSPIVTCVVVDVSEDDPDVQISWFVNNVEVHTAQTQTHREDYNSTLRVVSALPIQHQDWMSGKEFKCKVNNKDLGAPIERTISKPKGSVRAPQVYVLPPPEKEMTKKQVSLTCLVKDFMPEDIYVEWTNNGKTELNYKNTEPVLKSDGSYFMYSKLTVEKKNWVERNSYSCSVVHEGLHNHHTTKSFSRTPGGGGGSGGGGSGGGGSGGGGSQVQLVQSGAEVKKPGASVKVSCKASGYTFTDYYMHWVRQAPGQGLEWMGIINPRAGYTSYALKFQGRVTMTRDTSTSTVYMELSSLRSEDTAVYYCTSGWDVWGQGTLVTVSSASGGGGSGGGGSGGGGSHASDIQMTQSPSSLSASVGDRVTITCRASQSISTWLAWYQQKPGKAPKLLIYAASSLDSGVPSRFSGSGSGTDFTLTISSLQPEDFATYYCQQSYSFPVTFGQGTKVEIKGGGSGGGSHHHHHH
light: B3 light
B5: AF4387 (other)
heavy 1: APTSSSTKKTQLQLEHLLLDLQMILNGINNYKNPKLTDMLTFEFYMPKKATELKHLQCLERELKPLEEVLNLAQSKNFHLRPRDLISNINVIVLELKGSETTFMCEYADETATIVEFLNRWITFCQSIISTLTGGGGSGGGGSGGGGSGGGGSQVQLVQSGAEVKKPGASVKVSCKASGYTFTDYYMHWVRQAPGQGLEWMGIINPRAGYTSYALKFQGRVTMTRDTSTSTVYMELSSLRSEDTAVYYCTSGWDVWGQGTLVTVSSAKTTAPSVYPLAPVCGDTTGSSVTLGCLVKGYFPEPVTLTWNSGSLSSGVHTFPAVLQSDLYTLSSSVTVTSSTWPSQSITCNVAHPASSTKVDKKIEPRGPTIKPCPPCKCPAPNAAGGPSVFIFPPKIKDVLMISLSPIVTCVVVDVSEDDPDVQISWFVNNVEVHTAQTQTHREDYNSTLRVVSALPIQHQDWMSGKEFKCKVNNKDLGAPIERTISKPKGSVRAPQVYVLPPPEEEMTKKQVTLTCMVTDFMPEDIYVEWTNNGKTELNYKNTEPVLDSDGSYFMYSDLRVEKKNWVERNSYSCSVVHEGLHNHHTTESFSRTPGK
heavy 2: QVQLVQSGAEVKKPGASVKVSCKASGYTFTDYYMHWVRQAPGQGLEWMGIINPRAGYTSYALKFQGRVTMTRDTSTSTVYMELSSLRSEDTAVYYCTSGWDVWGQGTLVTVSSAKTTAPSVYPLAPVCGDTTGSSVTLGCLVKGYFPEPVTLTWNSGSLSSGVHTFPAVLQSDLYTLSSSVTVTSSTWPSQSITCNVAHPASSTKVDKKIEPRGPTIKPCPPCKCPAPNAAGGPSVFIFPPKIKDVLMISLSPIVTCVVVDVSEDDPDVQISWFVNNVEVHTAQTQTHREDYNSTLRVVSALPIQHQDWMSGKEFKCKVNNKDLGAPIERTISKPKGSVRAPQVYVLPPPEKEMTKKQVSLTCLVKDFMPEDIYVEWTNNGKTELNYKNTEPVLKSDGSYFMYSKLTVEKKNWVERNSYSCSVVHEGLHNHHTTKSFSRTPGGGGSGGGSHHHHHH
light: DIQMTQSPSSLSASVGDRVTITCRASQSISTWLAWYQQKPGKAPKLLIYAASSLDSGVPSRFSGSGSGTDFTLTISSLQPEDFATYYCQQSYSFPVTFGQGTKVEIKRADAAPTVSIFPPSSEQLTSGGASVVCFLNNFYPKDINVKWKIDGSERQNGVLNSWTDQDSKDSTYSMSSTLTLTKDEYERHNSYTCEATHKTSTSPIVKSFNRNEC

The binders below were run against PD-1-Fc (UniProt Q15116 25-167, limits assumed) (assay: cell-based or functional assay).
PD-1-Fc, sequence (Q15116 25-167 limits assumed): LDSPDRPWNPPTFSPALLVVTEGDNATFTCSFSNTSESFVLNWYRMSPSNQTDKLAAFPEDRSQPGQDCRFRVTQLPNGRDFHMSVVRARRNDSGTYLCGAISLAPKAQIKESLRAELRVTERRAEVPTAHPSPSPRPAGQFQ

| IL-2 activity EC50, HEK-Blue IL-2 reporter cells, IgG1 coated wells (control) [nM] | IL-2 activity EC50, HEK-Blue IL-2 reporter cells, PD-1 coated wells [nM] | IL-2 activity EC50, HEK-Blue IL-2 reporter cells, control wells [nM] | Binder |
| --- | --- | --- | --- |
| 0.062 | 0.031 |  | B1 |
| 1.79 | 0.05 |  | B2 |
|  | 0.031 | 0.062 | B3 |
|  | 0.026 | 0.064 | B4 |
| 0.419 | 0.057 |  | B5 |

Reference: patent publication US20240366776A1 (Hoffmann-La Roche, published 2024)
